In article doi:10.1101/2021.07.23.453529, “TELSAM polymers accelerate crystallization of fused target proteins by stabilizing minimal crystal contacts and in the absence of direct inter-TELSAM contacts” (bioRxiv, 2021):

B1: 1TEL (single TELSAM monomer) of 1TEL-flex-vWa (domain or fragment, human)
chain: GSIALPAHLRLQPIYWSRDDVAQWLKWAENEFSLRPIDSNTFEMNGKALLLLTKEDFRYRSPHSGDELYELLQHILAQ
notes: residue printed before TEL S47, left after SUMO cleavage; sterile alpha motif (SAM) domain of human ETS variant transcription factor 6 (TEL); Stood in the crystal joined on one chain with the vWa domain through one alanine; written apart for the contacts between the two parts
B2: DARPin (Designed Ankyrin Repeat Protein) of 3TEL-rigid-DARPin (designed binder)
chain: DLGKKLLEAARAGQDDEVRILMANGADVNATDNDGYTPLHLAASNGHLEIVEVLLKNGADVNASDLTGITPLHAAAATGHLEIVEVLLKHGADVNAYDNDGHTPLHLAAKYGHLEIVEVLLKHGADVNAQDKFGKTAFDISIDNGNEDLAEILQKLN
notes: Designed Ankyrin Repeat Protein (DARPin), modelled from PDB ID 4J7W; Stood in the crystal joined on one chain with 3TEL; also called DAPRin; source: E. coli BL21(DE3), purified, as part of the 3TEL-rigid-DARPin chain
B3: 3TEL-rigid-DARPin (other, human)
chain: GSIRLPAHLRLQPIYWSRDDVAQWLKWAENEFSLRPIDSNTFEMNGKALLLLTKEDFRYRSPHSGDELYELLQHILKQRPGGGGSTSIRLPAHLRLQPIYWSRDDVAQWLKWAENEFSLRPIDSNTFEMNGKALLLLTKEDFRYRSPHSGDVLYELLQHILKQRPGGGGSTSIRLPAHLRLQPIYWSRDDVAQWLKWAENEFSLRPIDSNTFEMNGKALLLLTKEDFRYRSPHSGDVLYELLQHILKQRDLEAEAAAAEDLGKKLLEAARAGQDDEVRILMANGADVNATDNDGYTPLHLAASNGHLEIVEVLLKNGADVNASDLTGITPLHAAAATGHLEIVEVLLKHGADVNAYDNDGHTPLHLAAKYGHLEIVEVLLKHGADVNAQDKFGKTAFDISIDNGNEDLAEILQKLN
notes: residue printed before TEL S47, left after SUMO cleavage; first TEL-SAM domain of 3TEL (human ETS variant transcription factor 6), the only one with V112E; flexible inter-TELSAM linker, as in PDB ID 2QAR; second TEL-SAM domain of 3TEL (human ETS variant transcription factor 6); third TEL-SAM domain of 3TEL (human ETS variant transcription factor 6); rigid alpha-helical connection between 3TEL and …
B4: 3TEL (three tandem TELSAM monomers) of 3TEL-rigid-DARPin (domain or fragment, human)
chain: GSIRLPAHLRLQPIYWSRDDVAQWLKWAENEFSLRPIDSNTFEMNGKALLLLTKEDFRYRSPHSGDELYELLQHILKQRPGGGGSTSIRLPAHLRLQPIYWSRDDVAQWLKWAENEFSLRPIDSNTFEMNGKALLLLTKEDFRYRSPHSGDVLYELLQHILKQRPGGGGSTSIRLPAHLRLQPIYWSRDDVAQWLKWAENEFSLRPIDSNTFEMNGKALLLLTKEDFRYRSPHSGDVLYELLQHILKQR
notes: residue printed before TEL S47, left after SUMO cleavage; first TEL-SAM domain of 3TEL (human ETS variant transcription factor 6), the only one with V112E; flexible inter-TELSAM linker, as in PDB ID 2QAR; second TEL-SAM domain of 3TEL (human ETS variant transcription factor 6); third TEL-SAM domain of 3TEL (human ETS variant transcription factor 6); written apart for the contacts between the two …

How the values were obtained:
[1] = biological target: the molecule itself; assay: crystal structure; 1TEL-flex-vWa, 20 mg/mL, sitting drop, 100 mM Bis-Tris, pH 5.7, 3.0 M NaCl; P65, 1 molecule per asymmetric unit; contacts within the polymer and the crystal lattice
[2] = biological target: B4; assay: crystal structure; 3TEL-rigid-DARPin, 15 mg/mL, sitting drop, HEPES pH 7.3-7.4 with PEG; P1211, 2 molecules per asymmetric unit; contacts within the polymer and the crystal lattice; details: both partners purified
[3] = biological target: the molecule itself; assay: as above

| Binder | binding result [3] | other results |
| --- | --- | --- |
| B1 | – | binding result [1]: binds |
| B2 | – | binding result [2]: binds |
| B3 | binds | – |
| B4 | binds | – |
